Laboratory results taken from the nanobody polyreactivity screen of Harvey et al. (2022).

Experiment: yeast display, Sf9 membrane polyspecificity reagent, FACS + sequencing; frameworks hold sequencing errors
Outline: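 A nanobody's polyreactivity label depends on the gate it was sorted from. Yeast display cells were stained with 10% biotinylated, detergent-solubilized Sf9 membrane reagent for 1 hour at 4 °C, enriched on streptavidin microbeads and sorted by FACS. The low and high (top ~1%) gates were set on anti-HA fluorescence for expression and streptavidin fluorescence for reagent binding.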

Row | Sequence | polyreactivity (PSR sort gate)
1 | QVQLVESGGGLVQAGGSLRLSCAASGRTFHYYAMGWYRQAPGKERELVASITYNGGDTYYADSVKGRFTISRDNAKNTVYLQMNSLKPEDTAVYYCAAEYYGHRYDYWGQGTQVTVSS | low polyreactivity
2 | QVQLVESGGGLVQAGGSLRLSCAASGRTFIEYAMGWYRQAPGKERELVAAISRNDGGSTYYADSVKGRFTISRDNAKNTVYLQMNSLKPEDTAVYYCAARRYISAHVRYGSWGQGTQVTVSS | high polyreactivity
3 | QVQLVESGGGLVQAGGSLRLSCAASGRTFIFNAMGWYRQAPGKERELVAAISSGGGTNYADSVKGRFTISRDNAKNTVYLQMNSLKPEVTAVYYCAADPRDHYSYVYDGYKYDYWGQGTQVTVSS | low polyreactivity
4 | QVQLVESGGGLVQAGGSLRLSCAASGRTFIGYAMGWYRHAPGKERELVATISVSGGSTYYADSVKGRFTISRDNAKNTVYLQMKSLKPEDTAVYYCDKAYLRYYDGPYDYWGQGTQVTVSS | low polyreactivity
5 | QVQLVESGGGLVQAGGSLRLSCAASGRTFIGYAMGWYRQAPGKERELVAASSSGGNTYYADSVKGRFTISRDNAKNTVYLQMNSLKPEDTAVYYCAAKGYRRVARYFIGDYWGQGTQVTVSS | low polyreactivity
6 | QVQLVESGGGLVQAGGSLRLSCAASGRTFIGYAMGWYRQAPGKERELVATISVSGGSTYYADSVKGRFTISRDNAKNTVYLQMNSLKPEVTAVYYCAKAYLRYYDGPYDYWGHGTQVTVSS | low polyreactivity
7 | QVQLVESGGGLVQAGGSLRLSCAASGRTFIINTMGWYRQAHGKERELVAAISKNGATTNYADSVKGRFTISRDNAKNTVYFQMNSLKPEDTAVYYCNARYSGYLRLDYWGQGTQVTVSS | low polyreactivity
8 | QVQLVESGGGLVQAGGSLRLSCAASGRTFIKNAMGWYRQAPGKERELVAAINWSGTRTYYADSVKGRFTISRDNAKNTVYLQMNSLKPEDTAVYYCAKVIARYVRYDYWGQGTQVTVSS | high polyreactivity
9 | QVQLVESGGGLVQAGGSLRLSCAASGRTFILYAMGWYRQAPGKERELVAAITRRGGRTYYADSVKGRFTISRDNAKNTVYLQMNSLKPEDTAVYYCAADQYYYTQPSDMDYWGQGTQVTVSS | high polyreactivity
10 | QVQLVESGGGLVQAGGSLRLSCAASGRTFIRNAMGWYRQAPGKERELVAAISGTGGSTYYADSVKGRLTISRDNAKNTVYLQMNSLKPEDTAVYYCAADRPAPGYDYWGQGTQVTVSS | low polyreactivity
11 | QVQLVESGGGLVQAGGSLRLSCAASGRTFIRNVMGWYRQAPGKERELVAAISTRGGSTYYADSVKGRFTISRDIAKNTVYLQMNSMKPEDTAVYYCASVIRCRYSYYEYDYWGQGTQETVSS | high polyreactivity
12 | QVQLVESGGGLVQAGGSLRLSCAASGRTFISYAMGWYRQAPGKERELVAAISGRGGSTYFADSVKGRFTISRDNAKNTVYLQMNSLKQEDTAVYYCAAEWFGVYRRYKYDYWGQGTQVTVSS | low polyreactivity
13 | QVQLVESGGGLVQAGGSLRLSCAASGRTFIVYAMGWYRQAPGKERELVAAITRSGSSTYYADSVKGRFTISRDNAKNTVYLQMNSLKPEDTAVYYCAADVGFGGYSHFDPYEYWGQGTQVTVSS | high polyreactivity
14 | QVQLVESGGGLVQAGGSLRLSCAASGRTFIWNAMGWYRQAPGKERELVADISIRGGSTNYADSVKGRFTISRDNAKNTVYFQMNSLKPEDTAVYYCAAEYYDSGNDYWGQGTQVTVSS | low polyreactivity
15 | QVQLVESGGGLVQAGGSLRLSCAASGRTFIYNAMAWYRQAPWKERELVAGITRSGGSTYYADSVKGRFTISRDNAKNTVYLQMNSLKPEDTAVYYCAAARRTKTFSSYYYWGQGTQVTVSS | high polyreactivity
16 | QVQLVESGGGLVQAGGSLRLSCAASGRTFIYYAMGWYRQAPGKERELVAAISRSGGSTYYADSVKGRFTISRDNAKNTVYLQMNSLKPEDTAVYYCAAADPLGYEYDSWGQGTQVTVSS | high polyreactivity
17 | QVQLVESGGGLVQAGGSLRLSCAASGRTFIYYAMGWYRQAPGKERELVAGISRNGGRTYYADSVKGRFTISRDNAKNTVYLQMNSLKPEDTAVYYCNARTYSYRGYNYWGQGTQVTVSS | high polyreactivity
18 | QVQLVESGGGLVQAGGSLRLSCAASGRTFKDYAMGWYRQAPGKERELVAAISWSGGDTYYADSVKGRFTISRDNAKNTVYLQMNSLKPEDTAVYYCNADPSGVFFYSLEFDYWGQGTQVTVSS | low polyreactivity
19 | QVQLVESGGGLVQAGGSLRLSCAASGRTFKFYAMGWDRQAPGSDRELVAAISSSGGRTYYADSVKGRFTISRDNAKNTVYLQMNSLKPEDTAVYYCAAVPGSKFVQKDDYWGQGTQVTVSS | low polyreactivity
20 | QVQLVESGGGLVQAGGSLRLSCAASGRTFKFYAMGWYRQAPGKERELVAGIGSGGRTYYADSVKGRFTISRYNAKNTVYLHMNSLKPEDTAVYYCAARQYGPRYTYYYWGQGTQVTVSS | high polyreactivity
21 | QVQLVESGGGLVQAGGSLRLSCAASGRTFKGYAMGWYRQAPGKEREFVATITSRGDRTYYADSVKGRFTISRDNAKNTVSLQMNSLKPEDTAVYYCNARYYWKQAADYNYWGQGTQVTVSS | low polyreactivity
22 | QVQLVESGGGLVQAGGSLRLSCAASGRTFKGYAMGWYRQAPGKERELVAAITGSVGSTYYADSVKGRFTISRDNAKNTVYLQMNSLKPEDTAVYYCAKRWKATRARYDYWGLGTQVTVSS | high polyreactivity

Row | Sequence | polyreactivity (PSR sort gate)
23 | QVQLVESGGGLVQAGGSLRLSCAASGRTFKINAMGWYRQAPGKERELVATITGRGASTYYADSVKGRFTISRDNAKNTVYLQMNSLKPEDTAVYYCAARTEVPTRYNYWGQGTQVTVSS | high polyreactivity
24 | QVQLVESGGGLVQAGGSLRLSCAASGRTFKIYAMGWYRQAPGKERELVAAISRGGRTYYADSVKGRFTISRDNAKNTVYLQMNSLKPEDTAVYYCAADLLISPEFYYWGQGTQVTVSS | high polyreactivity
25 | QVQLVESGGGLVQAGGSLRLSCAASGRTFKKYAMGWYRQAPGKERELVAAITGSGGSTYYADSVKGRFTISRDNAKNTVYLQMNILTPEDTAVYYCAAYAYGVWHSQDGGNYWGQCTQVTVSS | low polyreactivity
26 | QVQLVESGGGLVQAGGSLRLSCAASGRTFKKYAMGWYRQAPGKEREVVAAITSRVGSTSYADSVKGRFTISRDNAKNTVYLQMNSLKPEDTAVYYCAARYSVGTGYGYWGQGTQVTVSS | high polyreactivity
27 | QVQLVESGGGLVQAGGSLRLSCAASGRTFKPYAMGWYRQAPGKERELVAAISTRGGSTYYADSVKGRFTISRDNAKNTVYLQMNSLKPEDTAVYYCAATQPGRDYDYWGQGTQVTVSS | low polyreactivity
28 | QVQLVESGGGLVQAGGSLRLSCAASGRTFKSYAMGWYRQAPGKERELVAAISKRGGSTYYADSVKGRFTISRDNAKNTVYLQMNSLKPEDTAVYYCAADARYRSYSLLVRPGRYYYWGQGTQVTVSS | high polyreactivity
29 | QVQLVESGGGLVQAGGSLRLSCAASGRTFKSYAMGWYRQAPGKERELVAAISYSGGSTYYADSVKGRFTISRDNAKNTVYLQMNSLKPEDTAVYYCNVVSKVIRGLSGDGYWGQGTQVTVSS | high polyreactivity
30 | QVQLVESGGGLVQAGGSLRLSCAASGRTFKTYAMGWYRQAPGKERELVAAISRDGRTYYADSVKGRFTISRDNAMNTVYLQMNSLKPEDTAVYYCNKRSYRKGDYWGQGTQVTVSS | low polyreactivity
31 | QVQLVESGGGLVQAGGSLRLSCAASGRTFKVYAMGWYRQAPGKERELVAAISDRGGSTYYADSVKGRFTISRDNAKNSVYLQMNSLKPEDTAVYYCSAEYARSTWRAYPELDYWGQGTQVTVSS | low polyreactivity
32 | QVQLVESGGGLVQAGGSLRLSCAASGRTFKYNTMGWYRQAPGKERELVAVISRSGGRTYYADSVKGRFTISRDNAKNTVYLQMNSLKPEDTAVYYCAKGIPYADPQSAYDDYWGQGTQVTVSS | high polyreactivity
33 | QVQLVESGGGLVQAGGSLRLSCAASGRTFKYYAMGWSRQAPGKERELVATISSGGSTNYADSVKGRFTISRDNAKNTVYLQMNSLKPEDTAVYYCADTIGHNGFDYWGQGTQVTVSS | low polyreactivity
34 | QVQLVESGGGLVQAGGSLRLSCAASGRTFKYYAMGWYRQAPGIEREFVAAITVSGGSTYYADSVKGRFTISRDNAKNPVYLQMNSLKPEDTAVYYCAARYQRYSSKTIQNEDYWGQGTQVTVSS | high polyreactivity
35 | QVQLVESGGGLVQAGGSLRLSCAASGRTFKYYAMGWYRQAPGKERELVAAISRGGSTNYADSVKGRFTISRDNAKNTVYLQVNSLKPEDTPVYYCAKDYVWYDEYDYWGQGTQVTVSS | low polyreactivity
36 | QVQLVESGGGLVQAGGSLRLSCAASGRTFKYYAMGWYRQAPGKERELVATITYSGGSTYYADSVKGRFTISRDNAKNTVYLQMNSLKPEDTAVYYCNKVIFLSQSSYSFHYAYDYWGQGTQVTVSS | high polyreactivity
37 | QVQLVESGGGLVQAGGSLRLSCAASGRTFLEKAMGWYRPAPGKEREFVAANTYSSGSTFYADSVKGRFTISRDNAKNTVYLQMNSLKPEDTAVYYCAARFWYRHARWYDYWGQGTQVTVSS | high polyreactivity
38 | QVQLVESGGGLVQAGGSLRLSCAASGRTFLFNTMGWYRQAPGKERELVAAITRRGGSTYYADSVKGRFTISRDNAKNTVYLQMNSLKPEDTAVYYCNAPAYSPPGYYWGQGTQVTVSS | low polyreactivity
39 | QVQLVESGGGLVQAGGSLRLSCAASGRTFLGYAMGWYRQAPGKERELVAAISGSGDRTYYADSVKGRFTISRDNAKNTVYLQMNSLKPEDTAVYYCNAVTVRYYASYYGRGMDYWGQGTQVTVSS | high polyreactivity
40 | QVQLVESGGGLVQAGGSLRLSCAASGRTFLGYAMGWYRQAPGKERELVAAISSSGGRTYYADSVKGRFTISRDNAKNTVYLQMNSLKPEDTAVYYCNAPRIVLCGYEYWGQGTQVTVSS | high polyreactivity
41 | QVQLVESGGGLVQAGGSLRLSCAASGRTFLIYAMGWYRQAPGKERELVAAINNGGSTYYADSVKGRFTISRDNAKNTVYLQMNSLKPEDTAVYYCAARQIRATRYYYWGQGTQVTVSS | high polyreactivity
42 | QVQLVESGGGLVQAGGSLRLSCAASGRTFLKYTLGWYRQAPGKERELVAAISGSGGSTYYADSVKGRFTISRDNAKNTVYLQMNSLKPEDTAVYYCAAAIVRHYQTGYYWGQGTQVTVSS | high polyreactivity
43 | QVQLVESGGGLVQAGGSLRLSCAASGRTFLLNAMGWYRQAPGKERELVAAITRSGVITYYADSVKGRFTISRDIAKNTVYFQMNSLKPEDTAVFYCAAQLRYSYLRPSYYYWGQGTQVTVSS | high polyreactivity
